One substance from publication PMC8172134 can be followed below.

This experiment deals with SARS-CoV-2 spike prefusion stabilized ectodomain trimer (SARS-CoV-2) (UniProt P0DTC2). Description: cryo-EM structure.

The substance 47D11 Fab fragment gave a stoichiometry N (Fab per spike trimer) of 2.
